Source: paper PMC2723993, “Crystal Structure of Escherichia coli Polynucleotide Phosphorylase Core Bound to RNase E, RNA and Manganese: Implications for Catalytic Mechanism and RNA Degradosome Assembly” (Journal of Molecular Biology, 2009)

B1: RNase E recognition micro-domain (residues 1021-1061) (peptide, UniProt P21513 1021-1061, looked up)
peptide: EAPRHSDWQRPTFAFEGKGAAGGHTATHHASAAPARPQPVE
notes: also called RNase E micro-domain; source: synthetic peptide (Clonestar Biotech Ltd), desalted on PD10
B2: Escherichia coli polynucleotide phosphorylase core (PNPase ΔKHΔS1, lacking the C-terminal S1 and KH domains) (domain or fragment, E. coli)
chain: MLNPIVRKFQYGQHTVTLETGMMARQATAAVMVSMDDTAVFVTVVGQKKAKPGQDFFPLTVNYQERTYAAGRIPGSFFRREGRPSEGETLIARLIDRPIRPLFPEGFVNEVQVIATVVSVNPQVNPDIVAMIGASAALSLSGIPFNGPIGAARVGYINDQYVLNPTQDELKESKLDLVVAGTEAAVLMVESEAQLLSEDQMLGAVVFGHEQQQVVIQNINELVKEAGKPRWDWQPEPVNEALNARVAALAEARLSDAYRITDKQERYAQVDVIKSETIATLLAEDETLDENELGEILHAIEKNVVRSRVLAGEPRIDGREKDMIRGLDVRTGVLPRTHGSALFTRGETQALVTATLGTARDAQVLDELMGERTDTFLFHYNFPPYSVGETGMVGSPKRREIGHGRLAKRGVLAVMPDMDKFPYTVRVVSEITESNGSSSMASVCGASLALMDAGVPIKAAVAGIAMGLVKEGDNYVVLSDILGDEDHLGDMDFKVAGSRDGISALQMDIKIEGITKEIMQVALNQAKGARLHILGVMEQAINAPRGDIS
notes: Expression vector from George Mackie; No tag is mentioned; also called PNPase core; PNPase ΔKΔH1; source: E. coli BL21 (DE3), auto-induction, purified (ammonium sulphate, Q-Sepharose, mono-Q)

Legend:
[1] = molecular target: B2; experiment: ITC; MicroCal VP-ITC, 25 °C; 200 uM PNPase core injected into 10 uM RNase E micro-domain in the cell; 10 mM Tris pH 7.5, 150 mM NaCl, 1 mM MgCl2; single binding-site model; conditions: both partners purified
[2] = molecular target: the molecule itself; experiment: crystal structure; co-crystals of 165 uM PNPase core mixed with 246 uM RNase E micro-domain (1021-1061), with or without O2'-methyl RNA, Mn2+ or tungstate; four crystal forms; hanging drop, 20 °C
[3] = molecular target: B1; experiment: ITC; MicroCal VP-ITC, 25 °C; 200 uM PNPase core injected into 10 uM RNase E micro-domain in the cell; 10 mM Tris pH 7.5, 150 mM NaCl, 1 mM MgCl2; single binding-site model; conditions: both partners purified

Ka [1]	Kd [1]	dH [3]	stoichiometry N [3]	Binder	stoichiometry N [2]
956000 M⁻¹	~0.9 µM	–	–	B1	–
–	–	-89.9 ± 2.18 kJ/mol	1.02 ± 0.02	B2	3
